Here are results for one molecule from patent publication EP4368203A1 (Wuhan Neurophth Biotechnology Limited Company, dated 2024).

This assay concerns the target T1, rat VEGF (in rat serum) (rat, UniProt P16612-2 27-190, limits assumed).
T1 construct: also called VEGF in rat serum samples
T1 sequence (looked up): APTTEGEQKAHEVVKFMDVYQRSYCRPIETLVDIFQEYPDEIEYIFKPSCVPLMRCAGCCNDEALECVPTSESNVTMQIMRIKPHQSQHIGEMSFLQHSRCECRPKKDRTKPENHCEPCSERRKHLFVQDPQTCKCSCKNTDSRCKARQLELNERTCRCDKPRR
Put plainly: Western blot, cell supernatant as primary antibody.

B1: anti-VEGF Fab expressed by the MDR6 plasmid (culture supernatant of transfected cells) (Fab, V domains shown)
VH: EVQLVESGGGLVQPGGSLRLSCAASGYDFTHYGMNWVRQAPGKGLEWVGWINTYTGEPTYAADFKRRFTFSLDTSKSTAYLQMNSLRAEDTAVYYCAKYPYYYGTSHWYFDVWGQGTLVTVSS
VL: DIQLTQSPSSLSASVGDRVTITCSASQDISNYLNWYQQKPGKAPKVLIYFTSSLHSGVPSRFSGSGSGTDFTLTISSLQPEDFATYYCQQYSTVPWTFGQGTKVEIKR
notes: also called M6
For B1, the binding result was “no binding (tested: 5 ug of rat serum)”.
